This note sets out measurements from paper PMC4691890.

For the test, the target named is T1, full-length human Apaf-1 (residues 1–1248) (human), O14727.
T1 chain: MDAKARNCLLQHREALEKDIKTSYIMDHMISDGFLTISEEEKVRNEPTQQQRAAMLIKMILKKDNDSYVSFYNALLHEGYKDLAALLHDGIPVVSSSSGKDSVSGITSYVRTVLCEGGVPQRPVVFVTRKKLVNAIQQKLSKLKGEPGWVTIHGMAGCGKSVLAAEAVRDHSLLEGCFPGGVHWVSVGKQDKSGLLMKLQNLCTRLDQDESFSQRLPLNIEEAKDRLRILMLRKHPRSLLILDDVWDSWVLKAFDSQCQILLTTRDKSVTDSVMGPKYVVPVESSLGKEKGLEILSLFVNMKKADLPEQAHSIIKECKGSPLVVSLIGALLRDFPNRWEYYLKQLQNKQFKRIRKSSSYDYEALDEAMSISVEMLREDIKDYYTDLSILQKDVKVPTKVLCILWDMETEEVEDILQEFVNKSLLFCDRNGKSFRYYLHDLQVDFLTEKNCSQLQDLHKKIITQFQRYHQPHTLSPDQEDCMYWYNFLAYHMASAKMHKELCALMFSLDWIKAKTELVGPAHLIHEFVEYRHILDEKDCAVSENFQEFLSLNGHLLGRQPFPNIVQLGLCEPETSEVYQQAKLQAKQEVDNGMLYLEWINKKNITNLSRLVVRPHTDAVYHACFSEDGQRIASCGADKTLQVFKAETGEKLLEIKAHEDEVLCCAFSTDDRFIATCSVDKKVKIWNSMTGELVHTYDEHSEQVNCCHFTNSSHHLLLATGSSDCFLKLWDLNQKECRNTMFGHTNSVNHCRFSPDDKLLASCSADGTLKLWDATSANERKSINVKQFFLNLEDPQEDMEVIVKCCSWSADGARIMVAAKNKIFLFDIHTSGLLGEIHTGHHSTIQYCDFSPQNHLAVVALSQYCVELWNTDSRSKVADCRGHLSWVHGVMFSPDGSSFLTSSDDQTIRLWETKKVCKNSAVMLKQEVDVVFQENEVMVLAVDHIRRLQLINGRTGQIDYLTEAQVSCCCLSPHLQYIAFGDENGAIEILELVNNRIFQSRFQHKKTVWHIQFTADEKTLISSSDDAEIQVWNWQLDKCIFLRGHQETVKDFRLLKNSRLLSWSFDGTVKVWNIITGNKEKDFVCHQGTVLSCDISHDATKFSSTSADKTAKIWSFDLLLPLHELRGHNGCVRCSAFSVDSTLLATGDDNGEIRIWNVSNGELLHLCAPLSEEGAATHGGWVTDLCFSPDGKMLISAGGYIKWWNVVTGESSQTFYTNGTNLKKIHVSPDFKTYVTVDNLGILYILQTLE
The test is described as follows: cryo-EM structure; apoptosome assembled from full-length Apaf-1 with horse CytC (Sigma) at ~1:2 and 1 mM dATP; ~5 μM on grids; 3.8 Å overall, ~5 Å in the spokes after local masking. The following applies: remark: other sources report otherwise.

B1: full-length human Apaf-1 (residues 1–1248), O14727 1-1248 (natural protein)
chain: MDAKARNCLLQHREALEKDIKTSYIMDHMISDGFLTISEEEKVRNEPTQQQRAAMLIKMILKKDNDSYVSFYNALLHEGYKDLAALLHDGIPVVSSSSGKDSVSGITSYVRTVLCEGGVPQRPVVFVTRKKLVNAIQQKLSKLKGEPGWVTIHGMAGCGKSVLAAEAVRDHSLLEGCFPGGVHWVSVGKQDKSGLLMKLQNLCTRLDQDESFSQRLPLNIEEAKDRLRILMLRKHPRSLLILDDVWDSWVLKAFDSQCQILLTTRDKSVTDSVMGPKYVVPVESSLGKEKGLEILSLFVNMKKADLPEQAHSIIKECKGSPLVVSLIGALLRDFPNRWEYYLKQLQNKQFKRIRKSSSYDYEALDEAMSISVEMLREDIKDYYTDLSILQKDVKVPTKVLCILWDMETEEVEDILQEFVNKSLLFCDRNGKSFRYYLHDLQVDFLTEKNCSQLQDLHKKIITQFQRYHQPHTLSPDQEDCMYWYNFLAYHMASAKMHKELCALMFSLDWIKAKTELVGPAHLIHEFVEYRHILDEKDCAVSENFQEFLSLNGHLLGRQPFPNIVQLGLCEPETSEVYQQAKLQAKQEVDNGMLYLEWINKKNITNLSRLVVRPHTDAVYHACFSEDGQRIASCGADKTLQVFKAETGEKLLEIKAHEDEVLCCAFSTDDRFIATCSVDKKVKIWNSMTGELVHTYDEHSEQVNCCHFTNSSHHLLLATGSSDCFLKLWDLNQKECRNTMFGHTNSVNHCRFSPDDKLLASCSADGTLKLWDATSANERKSINVKQFFLNLEDPQEDMEVIVKCCSWSADGARIMVAAKNKIFLFDIHTSGLLGEIHTGHHSTIQYCDFSPQNHLAVVALSQYCVELWNTDSRSKVADCRGHLSWVHGVMFSPDGSSFLTSSDDQTIRLWETKKVCKNSAVMLKQEVDVVFQENEVMVLAVDHIRRLQLINGRTGQIDYLTEAQVSCCCLSPHLQYIAFGDENGAIEILELVNNRIFQSRFQHKKTVWHIQFTADEKTLISSSDDAEIQVWNWQLDKCIFLRGHQETVKDFRLLKNSRLLSWSFDGTVKVWNIITGNKEKDFVCHQGTVLSCDISHDATKFSSTSADKTAKIWSFDLLLPLHELRGHNGCVRCSAFSVDSTLLATGDDNGEIRIWNVSNGELLHLCAPLSEEGAATHGGWVTDLCFSPDGKMLISAGGYIKWWNVVTGESSQTFYTNGTNLKKIHVSPDFKTYVTVDNLGILYILQTLE
One may read the stoichiometry N as a count of units in the complex or per binding partner. In the case of B1, the stoichiometry N came out at 7.
